Results taken from publication PMC13364712.

Molecular target: actin filaments (actin from Gallus gallus skeletal muscle) (Gallus gallus (chicken)) (UniProt P68139)
Test: co-sedimentation; 4 µM EGFP–SFM peptide with 0–200 µM actin filaments in F buffer, 1 h at room temperature, 100,000g for 30 min; pellet read by anti-EGFP western blot; one-site specific binding fit; apparent

Substance	Kd
EGFP–Lifeact (peptide)	2 µM
EGFP-tagged USP54 SFM peptide, wild type	6 µM
